Measurements: US20090178146

T1: GST-NFAT1(1-415) fusion protein (entire NFAT1 regulatory domain) expressed in bacterial cells
T1 sequence (Q13469 whole entry, species assumed, looked up): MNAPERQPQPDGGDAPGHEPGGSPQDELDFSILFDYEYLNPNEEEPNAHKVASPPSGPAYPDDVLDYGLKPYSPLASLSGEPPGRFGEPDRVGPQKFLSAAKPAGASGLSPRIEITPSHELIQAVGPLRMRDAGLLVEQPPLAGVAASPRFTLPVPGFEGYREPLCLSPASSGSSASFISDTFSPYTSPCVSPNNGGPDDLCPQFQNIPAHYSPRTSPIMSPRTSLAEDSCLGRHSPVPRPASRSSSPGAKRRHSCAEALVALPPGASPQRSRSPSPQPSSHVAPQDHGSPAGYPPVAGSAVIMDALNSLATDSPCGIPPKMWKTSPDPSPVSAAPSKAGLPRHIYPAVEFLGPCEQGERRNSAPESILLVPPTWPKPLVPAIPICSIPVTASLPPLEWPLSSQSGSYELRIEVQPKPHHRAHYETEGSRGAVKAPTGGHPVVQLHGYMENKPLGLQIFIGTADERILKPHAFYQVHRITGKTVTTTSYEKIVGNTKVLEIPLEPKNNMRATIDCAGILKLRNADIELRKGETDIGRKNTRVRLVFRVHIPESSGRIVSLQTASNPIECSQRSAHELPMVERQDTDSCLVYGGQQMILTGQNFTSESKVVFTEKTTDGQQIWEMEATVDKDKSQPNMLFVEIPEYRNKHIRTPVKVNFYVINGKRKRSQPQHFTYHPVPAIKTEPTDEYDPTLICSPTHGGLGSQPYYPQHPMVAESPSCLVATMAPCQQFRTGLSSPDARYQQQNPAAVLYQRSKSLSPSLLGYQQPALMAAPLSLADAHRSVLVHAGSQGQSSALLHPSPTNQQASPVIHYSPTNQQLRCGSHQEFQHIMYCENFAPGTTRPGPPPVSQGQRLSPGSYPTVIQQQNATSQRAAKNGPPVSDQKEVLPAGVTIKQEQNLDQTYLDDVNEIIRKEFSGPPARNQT

T2: GST-fused peptide corresponding to the SP-2 motif (amino acids 206-237) of NFAT1, wild type
T2 sequence (Q13469 whole entry, species assumed, looked up): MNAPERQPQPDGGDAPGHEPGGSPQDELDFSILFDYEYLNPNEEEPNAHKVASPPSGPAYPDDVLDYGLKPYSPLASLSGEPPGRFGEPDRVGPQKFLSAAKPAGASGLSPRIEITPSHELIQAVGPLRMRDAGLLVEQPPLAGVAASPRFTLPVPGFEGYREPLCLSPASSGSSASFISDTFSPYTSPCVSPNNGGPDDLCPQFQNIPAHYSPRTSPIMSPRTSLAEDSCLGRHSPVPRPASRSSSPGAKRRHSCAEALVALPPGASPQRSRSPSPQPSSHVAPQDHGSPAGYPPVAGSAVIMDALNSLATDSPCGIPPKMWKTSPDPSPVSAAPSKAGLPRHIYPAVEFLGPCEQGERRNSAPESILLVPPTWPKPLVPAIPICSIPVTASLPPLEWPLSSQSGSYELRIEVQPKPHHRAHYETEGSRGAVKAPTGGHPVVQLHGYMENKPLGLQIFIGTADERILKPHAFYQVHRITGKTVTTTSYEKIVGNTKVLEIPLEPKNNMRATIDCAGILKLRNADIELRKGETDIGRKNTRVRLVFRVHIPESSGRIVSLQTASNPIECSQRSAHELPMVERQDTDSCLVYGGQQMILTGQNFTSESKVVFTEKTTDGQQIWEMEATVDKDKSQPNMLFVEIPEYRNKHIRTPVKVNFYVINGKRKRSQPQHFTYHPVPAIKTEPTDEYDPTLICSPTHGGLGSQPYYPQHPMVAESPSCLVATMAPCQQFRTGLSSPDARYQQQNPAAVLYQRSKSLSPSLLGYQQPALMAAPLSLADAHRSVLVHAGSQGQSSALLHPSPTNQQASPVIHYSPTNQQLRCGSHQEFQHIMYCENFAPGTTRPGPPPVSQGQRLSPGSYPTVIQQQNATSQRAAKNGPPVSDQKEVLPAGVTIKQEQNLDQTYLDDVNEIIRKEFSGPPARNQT


Legend:
[1] = biological target: T1, GST-NFAT1(1-415) fusion protein (entire …)
[2] = biological target: T2, GST-fused peptide corresponding to the …
[3] = biological target: GST-fused peptide corresponding to the SP-3 motif (amino acids 264-295) of NFAT1, wild type
[4] = biological target: GST-fused SP-3 peptide of NFAT1 (amino acids 264-295) with Ser>Ala substitutions in the serines phosphorylated in cells

Protein	in vitro kinase assay, phosphorylation of GST-NFAT1 (1-415) (autoradiography) [1]	in vitro kinase assay, phosphorylation of GST-peptide [2]	in vitro kinase assay, phosphorylation of GST-peptide [3]	in vitro kinase assay with recombinant kinase, phosphorylation of GST-peptide [4]	in vitro kinase assay with recombinant kinase, phosphorylation of GST-peptide [3]
FLAG-tagged DYRK2 expressed in HEK293 cells and immunoprecipitated with anti-FLAG antibody (protein) MNDHLHVGSHAHGQIQVQQLFEDNSNKRTVLTTQPNGLTTVGKTGLPVVPERQLDSIHRRQGSSTSLKSMEGMGKVKATPMTPEQAMKQYMQKLTAFEHHEIFSYPEIYFLGLNAKKRQGMTGGPNNGGYDDDQGSYVQVPHDHVAYRYEVLKVIGKGSFGQVVKAYDHKVHQHVALKMVRNEKRFHRQAAEEIRILEHLRKQDKDNTMNVIHMLENFTFRNHICMTFELLSMNLYELIKKNKFQGFSLPLVRKFAHSILQCLDALHKNRIIHCDLKPENILLKQQGRSGIKVIDFGSSCYEHQRVYTYIQSRFYRAPEVILGARYGMPIDMWSLGCILAELLTGYPLLPGEDEGDQLACMIELLGMPSQKLLDASKRAKNFVSSKGYPRYCTVTTLSDGSVVLNGGRSRRGKLRGPPESREWGNALKGCDDPLFLDFLKQCLEWDPAVRMTPGQALRHPWLRRRLPKPPTGEKTSVKRITESTGAITSISKLPPPSSSASKLRTNLAQMTDANGNIQQRTVLPKLVS	Three novel candidates-PRKG1, DYRK2 and IRAK4-showed strong activity in this assay	phosphorylated peptides corresponding to the conserved SP-3 but not the SP-2 motif of the NFAT regulatory domain in vitro	phosphorylated peptides corresponding to the conserved SP-3 but not the SP-2 motif of the NFAT regulatory domain in vitro	–	–
recombinant DYRK2 protein kinase (Upstate Biotechnology), bacterially expressed (protein) MNDHLHVGSHAHGQIQVQQLFEDNSNKRTVLTTQPNGLTTVGKTGLPVVPERQLDSIHRRQGSSTSLKSMEGMGKVKATPMTPEQAMKQYMQKLTAFEHHEIFSYPEIYFLGLNAKKRQGMTGGPNNGGYDDDQGSYVQVPHDHVAYRYEVLKVIGKGSFGQVVKAYDHKVHQHVALKMVRNEKRFHRQAAEEIRILEHLRKQDKDNTMNVIHMLENFTFRNHICMTFELLSMNLYELIKKNKFQGFSLPLVRKFAHSILQCLDALHKNRIIHCDLKPENILLKQQGRSGIKVIDFGSSCYEHQRVYTYIQSRFYRAPEVILGARYGMPIDMWSLGCILAELLTGYPLLPGEDEGDQLACMIELLGMPSQKLLDASKRAKNFVSSKGYPRYCTVTTLSDGSVVLNGGRSRRGKLRGPPESREWGNALKGCDDPLFLDFLKQCLEWDPAVRMTPGQALRHPWLRRRLPKPPTGEKTSVKRITESTGAITSISKLPPPSSSASKLRTNLAQMTDANGNIQQRTVLPKLVS	–	–	–	neither kinase phosphorylated an SP-3 peptide with Ser>Ala substitutions in the specific serine residues known to be phosphorylated in cells	DYRK2 and DYRK1A both displayed strong and selective kinase activity towards the SP-3 motif of NFAT1
FLAG-tagged IRAK4 expressed in HEK293 cells and immunoprecipitated with anti-FLAG antibody (protein) MNKPITPSTYVRCLNVGLIRKLSDFIDPQEGWKKLAVAIKKPSGDDRYNQFHIRRFEALLQTGKSPTSELLFDWGTTNCTVGDLVDLLIQNEFFAPASLLLPDAVPKTANTLPSKEAITVQQKQMPFCDKDRTLMTPVQNLEQSYMPPDSSSPENKSLEVSDTRFHSFSFYELKNVTNNFDERPISVGGNKMGEGGFGVVYKGYVNNTTVAVKKLAAMVDITTEELKQQFDQEIKVMAKCQHENLVELLGFSSDGDDLCLVYVYMPNGSLLDRLSCLDGTPPLSWHMRCKIAQGAANGINFLHENHHIHRDIKSANILLDEAFTAKISDFGLARASEKFAQTVMTSRIVGTTAYMAPEALRGEITPKSDIYSFGVVLLEIITGLPAVDEHREPQLLLDIKEEIEDEEKTIEDYIDKKMNDADSTSVEAMYSVASQCLHEKKNKRPDIKKVQQLLQEMTAS	Three novel candidates-PRKG1, DYRK2 and IRAK4-showed strong activity in this assay	–	–	–	–
FLAG-tagged PRKG1 expressed in HEK293 cells and immunoprecipitated with anti-FLAG antibody (protein) MSELEEDFAKILMLKEERIKELEKRLSEKEEEIQELKRKLHKCQSVLPVPSTHIGPRTTRAQGISAEPQTYRSFHDLRQAFRKFTKSERSKDLIKEAILDNDFMKNLELSQIQEIVDCMYPVEYGKDSCIIKEGDVGSLVYVMEDGKVEVTKEGVKLCTMGPGKVFGELAILYNCTRTATVKTLVNVKLWAIDRQCFQTIMMRTGLIKHTEYMEFLKSVPTFQSLPEEILSKLADVLEETHYENGEYIIRQGARGDTFFIISKGTVNVTREDSPSEDPVFLRTLGKGDWFGEKALQGEDVRTANVIAAEAVTCLVIDRDSFKHLIGGLDDVSNKAYEDAEAKAKYEAEAAFFANLKLSDFNIIDTLGVGGFGRVELVQLKSEESKTFAMKILKKRHIVDTRQQEHIRSEKQIMQGAHSDFIVRLYRTFKDSKYLYMLMEACLGGELWTILRDRGSFEDSTTRFYTACVVEAFAYLHSKGIIYRDLKPENLILDHRGYAKLVDFGFAKKIGFGKKTWTFCGTPEYVAPEIILNKGHDISADYWSLGILMYELLTGSPPFSGPDPMKTYNIILRGIDMIEFPKKIAKNAANLIKKLCRDNPSERLGNLKNGVKDIQKHKWFEGFNWEGLRKGTLTPPIIPSVASPTDTSNFDSFPEDNDEPPPDDNSGWDIDF	Three novel candidates-PRKG1, DYRK2 and IRAK4-showed strong activity in this assay	–	–	–	–
